Measured values from patent US20200062863A1 (CSL BEHRING, published 2020).
Numbering of substitutions follows the chain as printed.

Legend:
[1] = target: T1, recombinant wild-type murine Factor XII (Mu-FXII) with C-terminal 8xHis-tag (mouse, UniProt Q80YC5 20-597); experiment: Western blot, non-reducing
T1 construct: cDNA of the entire Mu-FXII protein (GenBank NM_021489) expressed in Freestyle 293 cells, culture supernatant used; also called recombinant murine FXII; wild-type Mu-FXII
T1 sequence: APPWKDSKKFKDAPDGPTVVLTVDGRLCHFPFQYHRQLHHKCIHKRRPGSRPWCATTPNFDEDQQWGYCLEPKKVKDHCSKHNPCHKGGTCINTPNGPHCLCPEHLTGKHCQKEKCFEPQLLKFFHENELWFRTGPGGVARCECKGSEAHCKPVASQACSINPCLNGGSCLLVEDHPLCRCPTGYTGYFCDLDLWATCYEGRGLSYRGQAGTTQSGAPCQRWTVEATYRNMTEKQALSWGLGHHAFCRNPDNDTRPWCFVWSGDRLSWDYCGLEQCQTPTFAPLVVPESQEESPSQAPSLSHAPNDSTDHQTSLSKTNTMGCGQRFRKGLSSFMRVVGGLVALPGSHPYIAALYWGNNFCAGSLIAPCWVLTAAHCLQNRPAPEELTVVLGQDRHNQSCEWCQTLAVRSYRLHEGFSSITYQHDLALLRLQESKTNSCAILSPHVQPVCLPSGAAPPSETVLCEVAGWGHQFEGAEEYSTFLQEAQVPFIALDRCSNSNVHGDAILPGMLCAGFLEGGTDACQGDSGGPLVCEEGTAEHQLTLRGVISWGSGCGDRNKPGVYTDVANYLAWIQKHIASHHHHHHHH
Protocol: (§1) Proteins were then transferred electrophoretically onto nitrocellulose filters and blocked for 1 hour in 5% Milk powder in Tris-buffered saline with 0.05% Tween-20 (TTBS). Filters were then incubated for 1 hour with either 3F7 mAb or an anti-His mAb 3H3 (both at […] in TTBS with 5% Milk powder), washed thoroughly with TTBS, then incubated for a further hour with anti-human IgG-FITC or anti-mouse IgG-FITC, respectively (Millipore, USA; both at 0.25 mg/ml in TTBS with 5% Milk powder). Following further washing of membranes in TTBS, Ab-FITC bound proteins were visualized using a Typhoon variable mode analyzer (GE Healthcare, USA).

[2] = target: T2, human FXIIa (human, UniProt P00748 20-615, limits assumed); experiment: cell-based or functional assay
T2 sequence: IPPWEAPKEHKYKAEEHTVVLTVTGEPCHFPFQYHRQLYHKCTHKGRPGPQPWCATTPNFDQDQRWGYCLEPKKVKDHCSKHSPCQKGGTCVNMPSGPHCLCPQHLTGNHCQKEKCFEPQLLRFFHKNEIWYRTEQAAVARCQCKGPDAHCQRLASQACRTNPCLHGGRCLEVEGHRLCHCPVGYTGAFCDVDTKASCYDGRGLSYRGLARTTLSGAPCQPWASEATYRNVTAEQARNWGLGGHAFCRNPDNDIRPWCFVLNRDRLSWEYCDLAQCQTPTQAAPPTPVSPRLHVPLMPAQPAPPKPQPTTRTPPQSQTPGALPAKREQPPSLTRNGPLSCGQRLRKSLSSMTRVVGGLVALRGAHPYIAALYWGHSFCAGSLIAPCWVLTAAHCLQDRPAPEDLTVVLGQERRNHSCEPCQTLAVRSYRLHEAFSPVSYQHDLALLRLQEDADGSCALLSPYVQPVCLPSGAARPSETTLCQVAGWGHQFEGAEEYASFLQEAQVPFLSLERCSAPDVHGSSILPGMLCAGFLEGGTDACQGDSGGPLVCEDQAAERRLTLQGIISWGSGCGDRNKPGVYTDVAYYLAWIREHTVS

[3] = target: T3, human Factor XIIa-beta (human, UniProt P00748 354-615, limits assumed); experiment: SPR (Biacore), purified IgG4 captured on anti-human IgG, FXIIa beta 0-40 nM, 1:1 fit, 25 C
T3 construct: Bought from Enzyme Research Laboratories; also called FXIIa beta; FXIIa-beta
T3 sequence: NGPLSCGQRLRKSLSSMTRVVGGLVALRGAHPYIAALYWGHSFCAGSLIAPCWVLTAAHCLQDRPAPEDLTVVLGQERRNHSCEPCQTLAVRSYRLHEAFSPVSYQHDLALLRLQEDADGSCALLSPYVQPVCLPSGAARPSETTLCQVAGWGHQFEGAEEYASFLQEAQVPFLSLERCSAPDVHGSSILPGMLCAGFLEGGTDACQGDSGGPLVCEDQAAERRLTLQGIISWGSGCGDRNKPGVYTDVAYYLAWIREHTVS

[4] = target: T4, N516S; experiment: Western blot of culture supernatant (non-reducing SDS-PAGE) probed with 3F7 mAb, anti-human IgG-FITC
T4 construct: also called Mu-FXII N516S mutant with C-terminal 8xHis-tag; mutant l)
T4 single chain: T1 sequence with N497S
Protocol: as §1

[5] = target: T3, human Factor XIIa-beta; experiment: SPR (Biacore A100), unpurified IgG4 supernatant captured on anti-human IgG, single FXIIa beta concentration (100 nM), 37 C, 1:1 fit; estimated
Protocol: Anti-human (Goat anti-human IgG (gamma) mouse adsorbed, Invitrogen, Cat No. H10500) was chemically immobilised on a CM-5 sensor surface using amine coupling chemistry. Culture supernatants were diluted 1/60 with running buffer before capture. Antibodies were captured for 180 seconds representing an average capture of 800 response units (RU). FXIIa beta was then injected at zero and 100 nM for 180 seconds, and dissociated for 180 seconds. All assays were conducted on a Biacore A100 instrument at 37 degrees Celsius and the data fitted to a 1:1 kinetic model.

B1: monoclonal antibody 3F7 (fully human IgG4/lambda) (antibody, V domains shown)
VH: EVQLLESGGGLVQPGGSLRLSCAASGFTFSKYIMQWVRQAPGKGLEWVSGIRPSGGTTVYADSVKGRFTISRDNSKNTLYLQMNSLRAEDTAVYYCARALPRSGYLISPHYYYYALDVWGQGTTVTVSS
VL: QSELTQPPSASGTPGQRVTISCSGSSSNIGRNYVYWYQQVPGTAPKLLIYSNNQRPSGVPDRFSGSKSGTSASLVISGLRSEDEADYYCAAWDASLRGVFGGGTKLTVLG
notes: also called 3F7 mAb; MAb 3F7
- binding result [1]: binds
- IC50 (read off the curve) [2]: ~10 nM
- Kd [3]: 8.6 nM
- koff [3]: 0.0011 s⁻¹
- kon [3]: 120000 M⁻¹ s⁻¹
- binding result [4]: binds
- Kd [5]: 33 nM
